{"source": "paper PMC2935386", "about": "“Dissecting the Relation between a Nuclear Receptor and GATA: Binding Affinity Studies of Thyroid Hormone Receptor and GATA2 on TSHβ Promoter”", "key": {"[1]": {"target": "T1, TRβ1 DBD-LBD (TR DL, TRβ1ΔAB) (human, UniProt P10828 102-461)", "T1 sequence": "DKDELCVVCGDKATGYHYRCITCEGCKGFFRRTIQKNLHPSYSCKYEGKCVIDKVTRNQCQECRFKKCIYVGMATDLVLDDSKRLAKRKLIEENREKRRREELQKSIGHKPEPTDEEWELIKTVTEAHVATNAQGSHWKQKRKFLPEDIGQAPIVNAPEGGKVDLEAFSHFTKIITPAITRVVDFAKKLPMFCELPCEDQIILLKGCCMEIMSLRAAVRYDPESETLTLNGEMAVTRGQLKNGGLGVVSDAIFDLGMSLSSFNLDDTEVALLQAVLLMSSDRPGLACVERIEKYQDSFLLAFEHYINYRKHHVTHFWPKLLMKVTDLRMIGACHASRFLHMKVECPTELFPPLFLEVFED", "assay": "fluorescence anisotropy; T3; Hill n 2±0.4; Fluorescence anisotropy: 10 nM DNA, 20 mM Hepes pH 8.0, 50 mM NaCl, 1 mM MgCl2, 3 mM DTT, 5% glycerol, 10°C; agarose gel 1.3% in 0.5x TBE", "settings": "protein: recombinant; tags: His (pET28a); chain copies: 2; label: 5' fluorescein (FITC) on forward strand; blunt"}, "[2]": {"target": "T1, TRβ1 DBD-LBD (TR DL, TRβ1ΔAB)", "assay": "fluorescence anisotropy; no T3; Hill n 1±0.1; Fluorescence anisotropy: 10 nM DNA, 20 mM Hepes pH 8.0, 50 mM NaCl, 1 mM MgCl2, 3 mM DTT, 5% glycerol, 10°C; agarose gel 1.3% in 0.5x TBE", "settings": "protein: recombinant; tags: His (pET28a); chain copies: 2; label: 5' fluorescein (FITC) on forward strand; blunt"}, "GATA2-Zf [3]": {"target": "T2, GATA2-Zf (UniProt P23769 291-412)", "T2 sequence (P23769 291-412)": "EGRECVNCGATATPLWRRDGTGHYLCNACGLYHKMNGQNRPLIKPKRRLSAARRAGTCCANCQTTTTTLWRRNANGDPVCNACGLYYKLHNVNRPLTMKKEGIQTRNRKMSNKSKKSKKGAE", "assay": "fluorescence anisotropy; Hill n 1.3±0.4; Fluorescence anisotropy: 10 nM DNA, 20 mM Hepes pH 8.0, 50 mM NaCl, 1 mM MgCl2, 3 mM DTT, 5% glycerol, 10°C; agarose gel 1.3% in 0.5x TBE", "settings": "protein: recombinant; tags: His, thrombin treated; label: 5' fluorescein (FITC) on forward strand; blunt"}, "[4]": {"target": "T1, TRβ1 DBD-LBD (TR DL, TRβ1ΔAB)", "assay": "fluorescence anisotropy; no T3; up to 10000 nM; Fluorescence anisotropy: 10 nM DNA, 20 mM Hepes pH 8.0, 50 mM NaCl, 1 mM MgCl2, 3 mM DTT, 5% glycerol, 10°C; agarose gel 1.3% in 0.5x TBE", "settings": "protein: recombinant; tags: His (pET28a); chain copies: 2; label: 5' fluorescein (FITC) on forward strand; blunt"}, "[5]": {"target": "T1, TRβ1 DBD-LBD (TR DL, TRβ1ΔAB)", "assay": "fluorescence anisotropy; no T3; Hill n 3.5±0.1; Fluorescence anisotropy: 10 nM DNA, 20 mM Hepes pH 8.0, 50 mM NaCl, 1 mM MgCl2, 3 mM DTT, 5% glycerol, 10°C; agarose gel 1.3% in 0.5x TBE", "settings": "protein: recombinant; tags: His (pET28a); chain copies: 2; label: 5' fluorescein (FITC) on forward strand; blunt"}, "GATA2-Zf [6]": {"target": "T2, GATA2-Zf", "assay": "fluorescence anisotropy; Hill n 3.1±0.4; Fluorescence anisotropy: 10 nM DNA, 20 mM Hepes pH 8.0, 50 mM NaCl, 1 mM MgCl2, 3 mM DTT, 5% glycerol, 10°C; agarose gel 1.3% in 0.5x TBE", "settings": "protein: recombinant; tags: His, thrombin treated; label: 5' fluorescein (FITC) on forward strand; blunt"}, "TRβ1 DBD (TRβ1ΔAB/EF)": {"target": "T3, TRβ1 DBD (TRβ1ΔAB/EF) (human, UniProt P10828 102-198)", "T3 sequence": "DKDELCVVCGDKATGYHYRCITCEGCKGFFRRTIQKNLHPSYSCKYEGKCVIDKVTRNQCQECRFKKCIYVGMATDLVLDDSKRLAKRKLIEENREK", "assay": "gel filtration + agarose EMSA; 100 uM protein; DNA label not stated; Fluorescence anisotropy: 10 nM DNA, 20 mM Hepes pH 8.0, 50 mM NaCl, 1 mM MgCl2, 3 mM DTT, 5% glycerol, 10°C; agarose gel 1.3% in 0.5x TBE", "settings": "protein: recombinant; tags: His (pET28a); label: 5' fluorescein (FITC) on forward strand; blunt"}}}
{"binder": "DR4 TRE (dsDNA) DNA 1: AGTTCAGGTCACAGGAGGTCAGAG DNA 2: CTCTGACCTCCTGTGACCTGAACT", "values": [{"measurement": "Kd", "setting": "[1]", "value": "1980 ± 295", "unit": "nM"}, {"measurement": "Kd", "setting": "[2]", "value": "2040 ± 266", "unit": "nM"}]}
{"binder": "GATA-RE (canonical) (dsDNA) DNA 1: CACTTGATAACAGAAAGTGATAACTCT DNA 2: AGAGTTATCACTTTCTGTTATCAAGTG", "values": [{"measurement": "Kd", "setting": "GATA2-Zf [3]", "value": "14.9 ± 1.5", "unit": "nM"}, {"measurement": "binding result", "setting": "[4]", "value": "no binding"}]}
{"binder": "TSH NRE (dsDNA) DNA 1: TGGGTCACCACAGCATCTGCTCACCAATGCAAAGT DNA 2: ACTTTGCATTGGTGAGCAGATGCTGTGGTGACCCA", "values": [{"measurement": "Kd", "setting": "[5]", "value": "316 ± 29", "unit": "nM"}]}
{"binder": "TSH GATA-RE (dsDNA) DNA 1: TCAATAGATGCTTTTCAGATAAGAA DNA 2: TTCTTATCTGAAAAGCATCTATTGA", "values": [{"measurement": "Kd", "setting": "GATA2-Zf [6]", "value": "689 ± 38.7", "unit": "nM"}, {"measurement": "binding result", "setting": "[4]", "value": "no binding"}, {"measurement": "binding result", "setting": "TRβ1 DBD (TRβ1ΔAB/EF)", "value": "binds"}]}
